Source: patent publication US20240409647A1, “BISPECIFIC BINDING PROTEINS AGAINST ALARMINS AND USES THEREOF” (SINOMAB BIOSCIENCE LIMITED, priority 2022, published 2024)
Values joined by “and” are separate entries in the source; they are usually repeats but may differ in a detail not shown here. Identical values can stand only once.

Legend:
Cyno-IL17RB = test: Bio-Layer Interferometry (Octet), SM17 binding kinetics to cynomolgus IL17RB; parameters: species or system cynomolgus monkey; settings: trials 1 and 2
Procedure: Bio-Layer Interferometry analysis (Octet ReD96 system, Sartorius) was employed to determine the binding affinity of SM17 against human and cynomolgus monkey IL17RB protein (R&D systems). Briefly, SM17 (20 μg/mL) was immobilized on biosensors via interactions with anti-human Fab CH1; serially diluted Cyno-IL17RB and Human-IL17RB (at a concentration of 158.7 nM, 79.4 nM and 39.7 nM, respectively) were subsequently added following standard operation protocols of the Octet ReD96 system to plot out the association and dissociation curve. Irrelevant antibody (SM03, anti-human CD22 chimeric IgG1 antibody, SinoMab BioScience Limited) was used as the control reference. Of note, the KD is within picomolar-single digit nanomolar range.

IL-33 = target: T1, IL-33 (Homo sapiens, UniProt O95760); test: ELISA, antigen binding specificity of bsBp (IL-33); parameters: key: −: no binding; +: weak; ++: moderate; +++: strong binding; N/A refers to no binding affinity; settings: 33.5 nM; antigen coated at 2 μg/mL
T1 construct: purchased R&D systems
T1 sequence (O95760 95-270): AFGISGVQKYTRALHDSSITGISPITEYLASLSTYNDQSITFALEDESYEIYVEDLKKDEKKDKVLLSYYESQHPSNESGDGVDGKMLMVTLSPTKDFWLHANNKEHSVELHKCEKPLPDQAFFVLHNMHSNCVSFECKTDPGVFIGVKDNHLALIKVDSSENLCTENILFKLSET
Procedure: Binding specificities of bsBp were evaluated by standard ELISA assays. Briefly, ELISA strips were coated with the respective target antigens, including IL17RB, IL-33, or TSLP (R&D systems) at a final concentration of 2 μg/mL. Bispecific antibodies were added at 33.5 nM to ELISA strips coated with the desired antigen. After incubation under room temperature for 2 hours, ELISA strips were washed five times with PBS. […] No result is provided for SM17-human TSLPR as the yield was too low to be detected.

[1] = target: T2, human IL17RB expressed on HEK293 cells (Homo sapiens, UniProt Q9NRM6); test: Flow cytometry, SM17 binding to HEK293 transfected with human IL-17RB; settings: SM17 1 μg/ml
T2 construct: transfected either with full-length human or rhesus monkey IL-17RB (SinoBiological, Beijing, China); host or cells: HEK293
T2 sequence (Q9NRM6 18-502): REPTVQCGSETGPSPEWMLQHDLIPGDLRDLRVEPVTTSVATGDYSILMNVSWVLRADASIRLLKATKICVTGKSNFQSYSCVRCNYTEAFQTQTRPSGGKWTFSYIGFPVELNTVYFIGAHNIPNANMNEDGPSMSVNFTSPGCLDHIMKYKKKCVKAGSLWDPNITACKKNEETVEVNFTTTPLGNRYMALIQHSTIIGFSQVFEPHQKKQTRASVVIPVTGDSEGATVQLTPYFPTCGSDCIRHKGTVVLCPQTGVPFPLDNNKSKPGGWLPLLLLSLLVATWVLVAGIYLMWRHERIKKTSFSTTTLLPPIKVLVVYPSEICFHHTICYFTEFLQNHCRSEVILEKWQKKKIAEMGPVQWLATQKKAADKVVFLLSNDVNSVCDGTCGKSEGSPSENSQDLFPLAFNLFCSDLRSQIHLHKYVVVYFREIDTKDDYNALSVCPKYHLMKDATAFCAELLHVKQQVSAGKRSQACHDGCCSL
Procedure: HEK293 cells (ATCC, Manassas, VA) transfected either with full-length human or rhesus monkey IL-17RB (SinoBiological, Beijing, China) were examined for binding to SM17 following standard protocol for flow cytometry. Wild-type HEK293 stained with IgG4 isotype control (Sino Biological) was used as the negative control and for gating purpose. Briefly, HEK293 cells at a density of 3×10^5 cells were seeded into each well of a 6-well plate. On the next day, human or rhesus Il-17RB full length cDNA were first cloned into pCMV3-untagged expression plasmid through standard molecular cloning technique, and then expression plasmids for human or rhesus IL-17RB were transfected into HEK293 cells by lipofection (Lipofectamine 3000 reagent; Thermo Fisher Scientific). Transfected cells were trypsinized, harvested, and fixed with 4% paraformaldehyde (5 minutes). SM17, or human IgG4 control at 1 μg/ml in washing buffer (3% BSA in PBS) were added to the resuspend cells for incubation at RT for 30 min before Alexa Fluor® 647-conjugated goat anti-human IgG specific antibody (1:2000 dilution in washing buffer) (Jackson ImmunoResearch) was added for flow cytometry analysis using the BD FACSVerse cell analyzer (Becton Dickenson, Franklin Lakes, NJ).

hIL17RC = target: T3, hIL17RC (Homo sapiens, UniProt Q8NAC3); test: ELISA, SM17 specificity against IL-17 receptor subunits (IL17RC); assay type: binding; settings: 0.4 to 0.00064 μg/mL
T3 construct: purchased R&D systems
T3 sequence (Q8NAC3 21-791): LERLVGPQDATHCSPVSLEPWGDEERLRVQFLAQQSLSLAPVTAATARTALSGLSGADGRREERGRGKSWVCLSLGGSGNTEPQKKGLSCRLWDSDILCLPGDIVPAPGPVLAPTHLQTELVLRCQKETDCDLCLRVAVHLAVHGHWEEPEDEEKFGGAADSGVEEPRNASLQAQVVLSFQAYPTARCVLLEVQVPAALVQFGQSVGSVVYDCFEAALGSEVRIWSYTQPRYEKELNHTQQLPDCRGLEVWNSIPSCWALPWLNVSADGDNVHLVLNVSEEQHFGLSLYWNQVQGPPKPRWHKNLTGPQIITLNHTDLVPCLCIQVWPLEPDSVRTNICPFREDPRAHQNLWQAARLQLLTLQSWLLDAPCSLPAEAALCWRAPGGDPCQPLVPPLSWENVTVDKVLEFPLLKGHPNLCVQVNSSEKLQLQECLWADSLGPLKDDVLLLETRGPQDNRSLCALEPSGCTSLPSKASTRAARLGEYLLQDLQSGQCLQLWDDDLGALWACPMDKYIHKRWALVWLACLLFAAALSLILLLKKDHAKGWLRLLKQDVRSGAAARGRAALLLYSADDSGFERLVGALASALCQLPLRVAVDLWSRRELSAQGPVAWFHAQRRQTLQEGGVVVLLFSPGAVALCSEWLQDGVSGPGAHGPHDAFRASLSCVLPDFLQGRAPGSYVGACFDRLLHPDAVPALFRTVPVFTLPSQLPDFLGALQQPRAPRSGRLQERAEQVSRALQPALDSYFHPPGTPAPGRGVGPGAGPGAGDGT
Procedure: A standard ELISA method was used to determine the specificity of SM17 against other human IL17 receptor subunits. Similarly, serially diluted SM17 at different concentrations (final concentrations at 0.4, 0.08, 0.016, 0.0032 and 0.00064 μg/m, respectively) was added to the wells of ELISA plates coated either with human IL-17 receptor subunits A, C, D and E (IL17RA, IL17RC, IL17RD, and IL17RE) (R&D systems).

What does the source list for “SM17: humanized anti-IL17RB monoclonal antibody, human IgG4 isotype; HC SEQ ID NO: 32, LC SEQ ID NO: 33”?
Ka (Cyno-IL17RB): 32100 M⁻¹ s⁻¹ and 42100 M⁻¹ s⁻¹; Kdis (Cyno-IL17RB): 2.73e-05 s⁻¹ and 0.000215 s⁻¹; Intensity of specific antigen binding, IL-33 coated on ELISA strips (IL-33): −; binding of SM17 to hIL17RB-HEK293 [1]: 46%; binding of SM17 to IL17RC (in words) (hIL17RC): No obvious bindings
